Results as given in patent US12617827B2, “Self-assembling peptide” (NATIONAL UNIVERSITY CORPORATION TOKYO MEDICAL AND DENTAL …, priority 2020, dated 2026).
Like-named read-outs stand apart in the source and are kept apart here.

Assays:
[1] = biological target: RADA16 peptide, as RADA16 peptide gel; assay: incorporation into the peptide gel; unincorporated fraction in PBS washes measured by sandwich ELISA
[2] = cited from earlier work
[3] = Rheological property of the peptide gel (rheometer, storage elastic modulus G′ and loss elastic modulus G″); type: physicochemical; details: peptide concentration 1.0% by weight
Protocol: Among gels having a concentration of 1.0% by weight prepared in Example 1, gels formed by six types of peptide samples as examples: […] peptide (SEQ ID NO: 1), […] peptide (SEQ ID NO: 2), […] peptide (SEQ ID NO: 4), […] peptide (SEQ ID NO: 5), […] peptide (SEQ ID NO: 6), and […] peptide (SEQ ID NO: 8) were subjected to measurement of the rheological property thereof.
The rheological property was measured for 250 μL of a sample with a rheometer (Malvern Panalytical, Kinexus lab+). Specifically, the sample was sandwiched at a gap of 0.2 mm between plates, and subjected to measurement at 20° C.
The storage elastic modulus G′ and the loss elastic modulus G″ of a gel formed by each peptide are obtained by measurement of the rheological property. The storage elastic modulus G′ represents a component stored in an object, of the energy generated by an external force to the object and a strain, and the loss elastic modulus G″ represents a component externally diffused. In a case where a measurement specimen is a gel, the storage elastic modulus G′ generally exceeds the loss elastic modulus G″.

[4] = Fluidity test (gel formation ability) of peptide samples; type: physicochemical; details: 1.0% by weight in D-MEM (44 mM NaHCO3, pH 7.4), 37°C, CO2 5%, 48 hours
Protocol: A peptide powder after freeze-drying at 2.5 mg and 250 μL of D-MEM (containing 1×penicillin, 4.0 mM HEPES, 44 mM NaHCO3; pH 7.4) were added to a 1-mL microtube (glass container having an inner diameter of 5 mm and a height of 5 cm; Maruemu Corporation, Model No. 1), and ultrasound was irradiated in a water bath type ultrasonic apparatus (AS12GTU, 35 kHz, 60 W), to thereby disperse the peptide at a concentration of 1.0% by weight. Thereafter, the microtube was left to stand in a CO2 incubator (37° C., CO2 concentration 5%) for 48 hours in a state standing vertically with the bottom surface thereof facing downward. Penicillin (Life Technologies Corporation, Model No. 15140148) was used as an antibacterial agent at 100 U/mL for the purpose of prevention of mold generation, and a CO2 incubator was used for performing gelling in a condition similar to an in vivo condition.
In order to test whether the peptide sample lost fluidity and gelled, the sample was sealed in a CO2 incubator (37° C., CO2 concentration 5%) and taken out of the incubator, the microtube was rapidly flipped vertically, and a photograph of the peptide sample was taken and recorded. In a case where a portion or all of the peptide sample remained on the bottom surface side of the microtube, the peptide sample was determined to have lost fluidity and gelled. On the other hand, in a case where all of the peptide sample dropped to the cap side of the microtube, the peptide sample was determined not to have gelled.
Additional five types of peptides: […] (SEQ ID NO: 41), […] (SEQ ID NO: 42), […] (SEQ ID NO: 43), […] (SEQ ID NO: 44), and […] (SEQ ID NO: 45) were synthesized according to the same methods as in (1) to (3) of Example 1, and were subjected to gelling and fluidity test.

[5] = test system: mouse fetus-derived 3T3 cells (NIH3T3 cells); assay: Evaluation of cell adhesiveness on peptide-coated chamber slide; type: cell-based; details: 30 minutes on peptide-coated slide, compared with (RADA)4 peptide control
Protocol: A peptide sample having a concentration of 1.0% by weight was prepared by the same method as in Example 1. The peptide sample at 50 μL was dropped on a chamber slide (Merck Millipore, Millicell EZ 8-well glass) and dried under reduced pressure using a centrifugal concentrator (TAITEC CORPORATION, VC-96W), to thereby produce a chamber slide coated with the peptide. After 1.8×10^5 of mouse fetus-derived 3T3 cells (NIH3T3 cells) were suspended in 250 μL of a DMEM medium (containing 44 mM NaHCO3, Gibco, 11995-065) containing 10% serum and seeded onto the chamber slide coated with the peptide, incubation was performed in a CO2 incubator (37° C., CO2 concentration 5%) for 30 minutes. The chamber slide was washed with PBS, and cells not adhering thereto were removed. The adhering cells remaining after the washing were immobilized with 4% PFA, and then subjected to DAPI staining. The number of adhering cells was measured according to stereology as a strict quantitative determination technique which eliminates sampling biases. Specifically, nine frames of 100 μm×100 μm were created in a region of 300 μm×300 μm, and the number of cells in each of the frames was counted. The resulting number of cells was converted into the number of cells in a region of 1 mm×1 mm. In the present Example, a (RADA)4 peptide (SEQ ID NO: 19), which is known to form a cell-adhesive peptide gel, was used as a control.

[6] = Circular dichroism spectrum of peptide gels; type: physicochemical; details: 1.0% by weight peptide gel
From the text: The “circular dichroism” refers to a phenomenon in which a difference in absorbance occurs between left-handed circularly polarized light and right-handed circularly polarized light when a protein absorbs a circularly polarized light.
Among the peptide gels having a concentration of 1.0% by weight prepared in Example 1, three types of peptides as examples: […] peptide (SEQ ID NO: 4), […] peptide (SEQ ID NO: 2), and […] peptide (SEQ ID NO: 5) were subjected to measurement of circular dichroism spectra at 20° C., 40° C., 60° C., and 80° C. and circular dichroism spectra when re-cooled from 80° C. to 20° C.
The circular dichroism spectrum was measured with a JASCO J-1100 CD Spectrometer by using an assembly cell (GL Sciences, AB20-UV-0.1, cell length 0.1 mm). The measurement range was from 190 to 400 nm, the data-obtaining interval was 0.2 nm, the scanning speed was 200 nm/min, and the specimen concentration was 1.0% by weight. When the circular dichroism spectrum was measured, the temperature was controlled with JASCO temperature regulation unit and a water-cooled Peltier cell holder PTC-514.

| Substance | gelling (loss of fluidity after vertical flipping of the microtube) [4] | other results |
| --- | --- | --- |
| GFP-RADA16 fusion peptide (from UniProt P42212 1-238) | – | incorporation rate [1]: < 70% |
| RADARADARADARADA [(RADA)4, reference compound] | – | G' (Pa) ([2]; pH 3-4, peptide concentration 1.0% by weight): 30^*3 Pa; G' (Pa) ([3]; 2.2% TFA aq.): 265 Pa |
| RIDADMRARIR | gelled | G' (Pa) ([3]; DMEM (pH 7.4), 20°C): 47,500 Pa |
| RIDARMDARIR | gelled | cell adhesiveness (number of adhering cells) [5]: comparable with or more than a (RADA)4 peptide; circular dichroism signal (β-sheet structure) [6]: negative cotton effect around 220 nm; G' (Pa) ([3]; DMEM (pH 7.4), 20°C): 58,300 Pa |
| RIDARMRADIR | gelled | cell adhesiveness (number of adhering cells) [5]: comparable with or more than a (RADA)4 peptide; circular dichroism signal (β-sheet structure) [6]: negative cotton effect around 220 nm; G' (Pa) ([3]; DMEM (pH 7.4), 20°C): 21,300 Pa |
| RIDARMRADMR | gelled | – |
| RIRADIRADMR | gelled | – |
| RIRADIRGDIR | gelled | – |
| RIRADMDARIR | gelled | – |
| RIRADMRADIR | gelled | cell adhesiveness (number of adhering cells) [5]: comparable with or more than a (RADA)4 peptide; circular dichroism signal (β-sheet structure) [6]: negative cotton effect around 220 nm; G' (Pa) ([3]; DMEM (pH 7.4), 20°C): 4,830 Pa |
| RIRADMRGDIR | gelled | – |
| RIRARMDADIR | gelled | G' (Pa) ([3]; DMEM (pH 7.4), 20°C): 6,500 Pa |
| RIRGDIRADIR | gelled | – |
| RIRGDIRGDIR | gelled | – |
| RIRGDMRADIR | gelled | – |
| RIRGDMRGDIR | gelled | G' (Pa) ([3]; DMEM (pH 7.4), 20°C): 47,800 Pa |
| RLDLRLALRLDLR [SPG178, known peptide gelling agent] | – | G' (Pa) ([2]; pH 7, peptide concentration 1.0% by weight): 70^*3 Pa; G' (Pa) ([2]; pH 7, peptide concentration 1.5% by weight): 300^*3 Pa |
| RMDADMRARIR | gelled | – |
| RMDARIDARIR | gelled | – |
| RVDVDVRVRVR | did not gel | – |
| RVDVRVDVRVR | did not gel | – |
| RVDVRVRVDVR | did not gel | – |
| RVRVDVDVRVR | did not gel | – |
| RVRVDVRVDVR | did not gel | – |
| RVRVRVDVDVR | did not gel | – |
